Data set [1] has as its target T1, Cre 24::CGRIR (in E. coli) (Enterobacteria phage P1, UniProt P06956 SEQ:1-348).
T1 chain: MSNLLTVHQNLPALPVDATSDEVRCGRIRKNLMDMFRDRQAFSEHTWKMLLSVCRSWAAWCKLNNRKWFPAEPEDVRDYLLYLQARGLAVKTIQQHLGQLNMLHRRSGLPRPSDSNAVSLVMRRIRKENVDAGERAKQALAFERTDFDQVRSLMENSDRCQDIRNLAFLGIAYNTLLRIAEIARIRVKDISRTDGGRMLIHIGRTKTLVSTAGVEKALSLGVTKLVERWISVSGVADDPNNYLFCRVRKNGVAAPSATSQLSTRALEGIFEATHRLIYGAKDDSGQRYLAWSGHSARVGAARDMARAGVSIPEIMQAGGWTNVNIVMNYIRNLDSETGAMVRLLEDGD
In words: cell_activity; background 0.001%. To be noted: chain copies: 2.

In the next data set the target is Cre wt (in E. coli) (Enterobacteria phage P1, UniProt P06956 SEQ:1-343). In words: cell_activity; background 0.001%. To be noted: chain copies: 2.
Data set [2] deals with T2, Cre 280::CGRTG (in E. coli) (Enterobacteria phage P1, UniProt P06956 SEQ:1-348).
T2 chain: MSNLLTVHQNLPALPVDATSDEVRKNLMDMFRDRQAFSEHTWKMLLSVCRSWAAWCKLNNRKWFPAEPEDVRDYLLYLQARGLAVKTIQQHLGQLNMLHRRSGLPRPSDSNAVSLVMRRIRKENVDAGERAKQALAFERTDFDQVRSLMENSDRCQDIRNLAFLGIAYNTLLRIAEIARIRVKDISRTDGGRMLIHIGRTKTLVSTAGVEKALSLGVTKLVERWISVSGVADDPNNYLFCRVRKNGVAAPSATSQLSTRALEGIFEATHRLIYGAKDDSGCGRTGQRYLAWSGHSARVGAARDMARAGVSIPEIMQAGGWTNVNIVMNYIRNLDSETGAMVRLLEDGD
In words: cell_activity; background 0.001%. The note with it: chain copies: 2.

Data set [3] has as its target T3, Cre 286::LRPHW (in E. coli) (Enterobacteria phage P1, UniProt P06956 SEQ:1-348).
T3 chain: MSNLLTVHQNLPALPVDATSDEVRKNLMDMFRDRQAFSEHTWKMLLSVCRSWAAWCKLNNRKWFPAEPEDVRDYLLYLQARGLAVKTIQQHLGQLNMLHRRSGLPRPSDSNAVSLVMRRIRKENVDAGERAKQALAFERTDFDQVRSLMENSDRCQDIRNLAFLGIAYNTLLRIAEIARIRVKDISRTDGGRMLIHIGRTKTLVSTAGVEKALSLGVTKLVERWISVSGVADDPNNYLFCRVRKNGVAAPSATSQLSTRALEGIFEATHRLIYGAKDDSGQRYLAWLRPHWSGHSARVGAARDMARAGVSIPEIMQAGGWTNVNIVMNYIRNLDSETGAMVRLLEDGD
In words: cell_activity; background 0.001%. The note with it: chain copies: 2.

The target in data set [4] is T4, Cre 18::CGRNA+P15L (in E. coli) (Enterobacteria phage P1, UniProt P06956 SEQ:1-348).
T4 chain: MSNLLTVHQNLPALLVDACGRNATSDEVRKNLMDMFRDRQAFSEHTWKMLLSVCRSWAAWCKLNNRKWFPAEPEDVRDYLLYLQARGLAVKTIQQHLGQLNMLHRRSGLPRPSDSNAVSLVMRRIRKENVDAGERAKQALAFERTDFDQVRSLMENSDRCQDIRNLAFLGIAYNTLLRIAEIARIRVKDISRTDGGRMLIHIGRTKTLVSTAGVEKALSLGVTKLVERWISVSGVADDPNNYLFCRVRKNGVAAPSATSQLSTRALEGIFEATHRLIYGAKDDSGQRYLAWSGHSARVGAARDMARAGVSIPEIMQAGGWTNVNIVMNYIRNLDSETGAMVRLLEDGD
The experiment in a line: cell_activity; background 0.001%. To be noted: chain copies: 2.

In the next data set the target is Cre wt (Enterobacteria phage P1, UniProt P06956 SEQ:1-343). In words: cleavage_in_vitro; reference for mutants; cleavage strongly reduced on intact lox+3; 30 nM Cre, 10 mM MgCl2, 37 C. To be noted: chain copies: 2 per lox site (stated); label: 5'-32P. The protocol:
(§1) DNA cleavage reactions were in a 12 μl reaction volume containing Cre reaction buffer, 83 ng/μl BSA, 8.3 ng/μl calf thymus DNA, […] appropriate ³²P-labeled DNA substrate and 30 nM of Cre. Reactions were incubated at 37° C. for 1 hour, terminated by addition of 12 μl of 2×SDS-gels loading buffer (x: 40 mM Tris-HCl pH 6.8, 50 mM DTT, 1.0% SDS, 7.5% Glycerol, 0.01% Bromphenol Blue), heated at 95° C. for 5 minutes and then analyzed by 15% SDS-PAGE. Gels were quantified using a PhosphorImager (Molecular Dynamics, Sunnyvale, Calif.) scanner.
(§2) The ability of each mutant to catalyze cleavage at the lox⁺³ site on an unnicked 54 bp substrate was examined. Cleavage by Cre is easily detected as a slowly moving band on a polyacrylamide gel resulting from the formation of a protein-DNA complex in which the catalytic tyrosine of Cre is covalently linked to a 3′ phosphate of the labeled DNA substrate at the site of cleavage (FIG. 3).

The target of a further data set is T5, Cre 18::CGRNA+P15L (Enterobacteria phage P1, UniProt P06956 SEQ:1-348).
T5 chain: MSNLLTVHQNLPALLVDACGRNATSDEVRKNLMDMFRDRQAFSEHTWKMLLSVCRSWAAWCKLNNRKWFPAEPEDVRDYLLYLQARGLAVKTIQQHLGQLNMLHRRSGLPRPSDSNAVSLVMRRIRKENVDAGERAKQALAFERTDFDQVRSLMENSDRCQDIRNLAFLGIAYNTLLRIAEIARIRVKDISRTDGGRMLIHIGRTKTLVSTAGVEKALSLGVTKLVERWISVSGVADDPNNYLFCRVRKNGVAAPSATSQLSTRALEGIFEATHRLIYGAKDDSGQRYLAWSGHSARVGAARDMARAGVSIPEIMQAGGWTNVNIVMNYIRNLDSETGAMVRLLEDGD
In words: cleavage_in_vitro; covalent complex, top strand; 30 nM Cre. To be noted: chain copies: 2 per lox site (stated); label: 5'-32P. The protocol:
as §1, §2

The next data set concerns the target T6, Cre 24::CGRIR (Enterobacteria phage P1, UniProt P06956 SEQ:1-348).
T6 chain: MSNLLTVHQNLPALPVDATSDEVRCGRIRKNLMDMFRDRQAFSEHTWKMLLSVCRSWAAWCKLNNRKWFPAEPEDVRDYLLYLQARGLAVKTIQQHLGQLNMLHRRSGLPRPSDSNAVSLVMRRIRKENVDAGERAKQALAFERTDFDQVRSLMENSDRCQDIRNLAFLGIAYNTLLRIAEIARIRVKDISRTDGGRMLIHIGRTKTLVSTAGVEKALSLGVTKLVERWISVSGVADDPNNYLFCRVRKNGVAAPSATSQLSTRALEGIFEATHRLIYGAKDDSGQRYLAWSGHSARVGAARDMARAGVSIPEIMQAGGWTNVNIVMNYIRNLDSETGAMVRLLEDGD
Described as above. To be noted: chain copies: 2 per lox site (stated); label: 5'-32P. Here is the method:
as §1, §2

The target of the next data set is T7, Cre 286::LRPHW (Enterobacteria phage P1, UniProt P06956 SEQ:1-348).
T7 chain: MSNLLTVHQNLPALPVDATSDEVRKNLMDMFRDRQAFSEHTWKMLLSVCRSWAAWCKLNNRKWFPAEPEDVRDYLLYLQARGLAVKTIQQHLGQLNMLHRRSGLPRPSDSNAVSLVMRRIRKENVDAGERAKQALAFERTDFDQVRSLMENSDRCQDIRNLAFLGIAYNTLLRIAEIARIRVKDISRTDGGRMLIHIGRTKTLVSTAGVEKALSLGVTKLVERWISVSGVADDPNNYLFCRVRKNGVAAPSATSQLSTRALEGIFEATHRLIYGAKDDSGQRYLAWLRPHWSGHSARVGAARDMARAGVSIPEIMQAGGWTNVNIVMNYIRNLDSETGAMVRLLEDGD
The description is as above. To be noted: chain copies: 2 per lox site (stated); label: 5'-32P. The protocol:
as §1, §2

B1: lox+3 site (in plasmid or PCR fragment) (dsDNA)
DNA 1: ACAACTTCGTATAATGATTTATGCTATACGAAGTTAT
DNA 2: ATAACTTCGTATAGCATAAATCATTATACGAAGTTGT
Consider B1, for which the activity in data set [1] is 94 % recombination (KnR); with Cre wt (in E. coli) it was 0.1 % recombination (KnR); in [2], 61 % recombination (KnR); in data set [3], 92 % recombination (KnR); in data set [4] it was 56 % recombination (KnR).

B2: lox+3 cleavage oligonucleotide KC341 duplex (dsDNA)
DNA 1: TCGAGTGCACAACTTCGTATAATGATTTATGCTATACGAAGTTATCATTCGCTAG
DNA 2: CTAGCGAATGATAACTTCGTATAGCATAAATCATTATACGAAGTTGTGCACTCGA
In the case of B2, the “covalent cleavage complex formation” value in the data set with Cre wt was found to be 1 fold vs wt Cre. Also, the “cleavage (covalent Cre-DNA complex)” value was found to be 20 fold vs wt Cre with Cre 18::CGRNA+P15L, 4 fold vs wt Cre with Cre 24::CGRIR and 4 fold vs wt Cre in the data set with Cre 286::LRPHW.

The values above are taken from patent publication US20060014264, “Cre/lox system with lox sites having an extended spacer region” (Stowers Institute for Medical Research, published 2006).
